# Starred links: 1 amine or outer side, 2 acyl side, 3 side chain; linkers in the order of their positions; H or OH if unused. Non-standard residues stand in square brackets, D forms with d. Groups on a side chain read outwards from the residue. No end group written: not given here. *: point of attachment. C20 diacid = O=C(O)CCCCCCCCCCCCCCCCCCC(=O)*; γGlu = O=C(O)[C@H](CCC(=O)[*:2])N[*:1]; αMeL = CC(C)C[C@](C)(N)C(=O)O; AEEA = NCCOCCOCC(=O)O; Aib = CC(C)(N)C(=O)O
# T1: human glucose-dependent insulinotropic polypeptide receptor (human, UniProt P48546 22-466)
# T1 sequence (looked up): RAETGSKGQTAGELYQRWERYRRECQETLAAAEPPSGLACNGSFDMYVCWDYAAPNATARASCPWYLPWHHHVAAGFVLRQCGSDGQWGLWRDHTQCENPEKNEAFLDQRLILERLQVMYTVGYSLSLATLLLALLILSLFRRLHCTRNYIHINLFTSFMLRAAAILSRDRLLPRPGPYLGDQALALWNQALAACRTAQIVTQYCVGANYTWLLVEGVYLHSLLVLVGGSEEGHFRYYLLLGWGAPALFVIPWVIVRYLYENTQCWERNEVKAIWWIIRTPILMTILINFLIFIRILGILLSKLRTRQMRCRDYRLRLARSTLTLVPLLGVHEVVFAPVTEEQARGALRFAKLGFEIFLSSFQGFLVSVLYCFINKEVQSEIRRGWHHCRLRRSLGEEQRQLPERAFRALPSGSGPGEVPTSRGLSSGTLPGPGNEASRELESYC
# B1: Compound No. 0142 (peptide)
# peptide: H[Aib]HGTFTSDLSI[αMeL]LEK([AEEA-AEEA-γGlu-C20 diacid])KAAQEFVEWLLA[dE]GPSSGAPPPS-NH2
# modifications: N-terminus assumed
# SMILES: CC[C@H](C)[C@H](NC(=O)[C@H](CO)NC(=O)[C@H](CC(C)C)NC(=O)[C@H](CC(=O)O)NC(=O)[C@H](CO)NC(=O)[C@@H](NC(=O)[C@H](Cc1ccccc1)NC(=O)[C@@H](NC(=O)CNC(=O)[C@H](Cc1c[nH]cn1)NC(=O)C(C)(C)NC(=O)[C@@H](N)Cc1c[nH]cn1)[C@@H](C)O)[C@@H](C)O)C(=O)N[C@@](C)(CC(C)C)C(=O)N[C@@H](CC(C)C)C(=O)N[C@@H](CCC(=O)O)C(=O)N[C@@H](CCCCNC(=O)COCCOCCNC(=O)COCCOCCNC(=O)CC[C@H](NC(=O)CCCCCCCCCCCCCCCCCCC(=O)O)C(=O)O)C(=O)N[C@@H](CCCCN)C(=O)N[C@@H](C)C(=O)N[C@@H](C)C(=O)N[C@@H](CCC(N)=O)C(=O)N[C@@H](CCC(=O)O)C(=O)N[C@@H](Cc1ccccc1)C(=O)N[C@H](C(=O)N[C@@H](CCC(=O)O)C(=O)N[C@@H](Cc1c[nH]c2ccccc12)C(=O)N[C@@H](CC(C)C)C(=O)N[C@@H](CC(C)C)C(=O)N[C@@H](C)C(=O)N[C@H](CCC(=O)O)C(=O)NCC(=O)N1CCC[C@H]1C(=O)N[C@@H](CO)C(=O)N[C@@H](CO)C(=O)NCC(=O)N[C@@H](C)C(=O)N1CCC[C@H]1C(=O)N1CCC[C@H]1C(=O)N1CCC[C@H]1C(=O)N[C@@H](CO)C(N)=O)C(C)C
# B2: Compound No. 0143 (peptide)
# peptide: H[Aib]HGTFTSDLSI[αMeL]LEK([AEEA-AEEA-γGlu-C20 diacid])KAAQEFVEWLLAGGPSSGAPPPS-NH2
# modifications: N-terminus assumed
# SMILES: CC[C@H](C)[C@H](NC(=O)[C@H](CO)NC(=O)[C@H](CC(C)C)NC(=O)[C@H](CC(=O)O)NC(=O)[C@H](CO)NC(=O)[C@@H](NC(=O)[C@H](Cc1ccccc1)NC(=O)[C@@H](NC(=O)CNC(=O)[C@H](Cc1c[nH]cn1)NC(=O)C(C)(C)NC(=O)[C@@H](N)Cc1c[nH]cn1)[C@@H](C)O)[C@@H](C)O)C(=O)N[C@@](C)(CC(C)C)C(=O)N[C@@H](CC(C)C)C(=O)N[C@@H](CCC(=O)O)C(=O)N[C@@H](CCCCNC(=O)COCCOCCNC(=O)COCCOCCNC(=O)CC[C@H](NC(=O)CCCCCCCCCCCCCCCCCCC(=O)O)C(=O)O)C(=O)N[C@@H](CCCCN)C(=O)N[C@@H](C)C(=O)N[C@@H](C)C(=O)N[C@@H](CCC(N)=O)C(=O)N[C@@H](CCC(=O)O)C(=O)N[C@@H](Cc1ccccc1)C(=O)N[C@H](C(=O)N[C@@H](CCC(=O)O)C(=O)N[C@@H](Cc1c[nH]c2ccccc12)C(=O)N[C@@H](CC(C)C)C(=O)N[C@@H](CC(C)C)C(=O)N[C@@H](C)C(=O)NCC(=O)NCC(=O)N1CCC[C@H]1C(=O)N[C@@H](CO)C(=O)N[C@@H](CO)C(=O)NCC(=O)N[C@@H](C)C(=O)N1CCC[C@H]1C(=O)N1CCC[C@H]1C(=O)N1CCC[C@H]1C(=O)N[C@@H](CO)C(N)=O)C(C)C
# B3: Compound No. 0144 (peptide)
# peptide: H[Aib]HGTFTSDLSILLEK([AEEA-AEEA-γGlu-C20 diacid])KAAQEFVEWLLA[dE]GPSSGAPPPS-NH2
# Molecular target: human glucagon receptor (human, UniProt P47871 26-477)
# Sequence (P47871 26-477): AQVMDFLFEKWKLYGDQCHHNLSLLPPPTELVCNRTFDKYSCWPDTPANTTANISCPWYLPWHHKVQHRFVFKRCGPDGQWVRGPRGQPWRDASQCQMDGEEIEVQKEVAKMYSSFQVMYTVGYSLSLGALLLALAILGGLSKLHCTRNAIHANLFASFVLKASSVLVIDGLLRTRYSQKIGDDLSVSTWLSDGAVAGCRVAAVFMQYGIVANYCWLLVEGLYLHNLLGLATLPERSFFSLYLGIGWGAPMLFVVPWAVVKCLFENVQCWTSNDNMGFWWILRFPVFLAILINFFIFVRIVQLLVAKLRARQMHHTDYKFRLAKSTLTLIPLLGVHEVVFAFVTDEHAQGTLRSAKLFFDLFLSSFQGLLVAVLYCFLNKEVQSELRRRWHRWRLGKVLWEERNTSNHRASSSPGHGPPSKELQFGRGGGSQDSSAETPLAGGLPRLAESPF
# Assay: cell-based or functional assay
row,Binder,Activity against human GCGR (EC50 nM)
1,B1,0.49 nM
2,B2,0.423 nM
3,B3,0.311 nM

# Molecular target: human glucagon-like peptide-1 receptor (human, UniProt P43220 24-463)
# Assay: cell-based or functional assay
row,Binder,Activity against human GLP-1R (EC50 nM)
1,B1,0.058 nM
2,B2,0.09 nM
3,B3,0.035 nM

# Molecular target: T1, human glucose-dependent insulinotropic …
# Assay: cell-based or functional assay
row,Binder,Activity against human GIPR (EC50 nM)
1,B1,0.007 nM
2,B2,0.004 nM
3,B3,0.012 nM

# From patent EP4745153A1, “GLP-1, GIP AND GCG RECEPTOR […] USE THEREOF” (Jiangsu Hengrui Pharmaceuticals Co., Ltd., priority 2023, dated 2025)
